Measured values from publication PMC6456722, “Internal cleavage and synergy with twisted gastrulation enhance BMP inhibition by BMPER” (Matrix Biology, 2019).

B1: chordin vWFC2-3 (domain or fragment, UniProt Q9H2X0 703-850, looked up)
chain: NTCFFEGQQRPHGARWAPNYDPLCSLCTCQRRTVICDPVVCPPPSCPHPVQAPDQCCPVCPEKQDVRDLPGLPRSRDPGEGCYFDGDRSWRAAGTRWHPVVPPFGLIKCAVCTCKGGTGEVHCEKVQCPRLACAQPVRVNPTDCCKQC
notes: chordin, domains vWFC2-3
B2: twisted gastrulation (Tsg) (natural protein, human, UniProt Q9GZX9 26-223, looked up)
chain: CNKALCASDVSKCLIQELCQCRPGEGNCSCCKECMLCLGALWDECCDCVGMCNPRNYSDTPPTSKSTVEELHEPIPSLFRALTEGDTQLNWNIVSFPVAEELSHHENLVSFLETVNQPHHQNVSVPSNNVHAPYSSDKEHMCTVVYFDDCMSIHQCKISCESMGASKYRWFHNACCECIGPECIDYGSKTVKCMNCMF
notes: twisted gastrulation (Tsg)
B3: full-length BMP-binding endothelial cell precursor-derived regulator (FL-BMPER) (natural protein)
chain: not shown
modifications: N-glycosylated (five predicted N-glycosylation sites)
notes: BMPER, human, full length, based on NCBI NM_133468.4; five vWFC domains, one vWFD domain, one TIL domain; His tag is thrombin cleavable; The protein is internally cleaved at the G368DPH371 site; the two fragments stay joined by the disulphide C364-C497; also called full length BMPER; Crossveinless-2 (CV2) in other species

Legend:
[1] = target: T1, N-BMPER (N-terminal five vWFC domains of human BMPER) (human, UniProt Q8N8U9 40-358, N-glycosylated (four predicted sites in the vWFC domains)); assay: SPR; chordin vWFC2-3 immobilised, N-BMPER in solution phase; Langmuir 1:1 model; conditions: both partners purified
T1 construct: BMPER, human, the N-terminal five vWFC domains (vWFC1-5), based on NCBI NM_133468.4; His tag is thrombin cleavable; also called C-terminally truncated N-BMPER

[2] = target: T1, N-BMPER (N-terminal five vWFC domains …); assay: SPR; ProteOn XPR36; Tsg immobilised on a GLC chip by amine coupling; FL-BMPER (0-150 nM) or N-BMPER (0-50 nM) as analytes; 10 mM phosphate pH 7.4, 137 mM NaCl, 2.7 mM KCl, 0.005% Tween-20, 25 °C; KD of FL-BMPER by equilibrium analysis, of N-BMPER by Langmuir 1:1 model; conditions: both partners purified
[3] = target: B3; assay: as above; conditions: both partners purified
[4] = target: the molecule itself; assay: AUC; sedimentation velocity, 230 nm, 45000 rpm, 20 °C

T1 sequence (Q8N8U9 40-358): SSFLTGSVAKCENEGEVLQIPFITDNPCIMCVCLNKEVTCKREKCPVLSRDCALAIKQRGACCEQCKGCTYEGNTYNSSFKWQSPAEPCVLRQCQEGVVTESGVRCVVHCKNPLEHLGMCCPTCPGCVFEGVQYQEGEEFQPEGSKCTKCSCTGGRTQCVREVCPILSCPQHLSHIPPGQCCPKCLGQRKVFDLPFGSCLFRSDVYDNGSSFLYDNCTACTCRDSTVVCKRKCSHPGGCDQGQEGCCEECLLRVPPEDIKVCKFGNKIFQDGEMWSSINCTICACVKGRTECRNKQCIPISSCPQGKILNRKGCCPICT

Binder: B1
- Kd [1]: 200 pM
- koff [1]: 8.22e-05 s⁻¹
- kon [1]: 404000 M⁻¹ s⁻¹

Binder: B2
- Kd [2]: 550 pM
- koff [2]: 0.000228 s⁻¹
- kon [2]: 415000 M⁻¹ s⁻¹
- Kd [3]: 68400 pM
- koff [3]: 0.000203 s⁻¹
- kon [3]: 2970 M⁻¹ s⁻¹

Binder: B3
- binding result [4]: binds
